Results published in patent US20250340661A1 (JIANGSU HENGRUI PHARMACEUTICALS, published 2025).
Substitutions are numbered along the chain they refer to. Names and notes keep the numbering of the source.

Columns and labels:
[1] = target: T1, human CD40 on the cell surface (human, UniProt P25942 21-277); experiment: cell-based or functional assay
[2] = target: T1, human CD40 on the cell surface; experiment: flow cytometry on Raji cells, AF647 anti-human IgG detection
Protocol: Raji cells are of a tumor cell line that overexpresses human CD40. 2E5 Raji cells were inoculated onto a 96-well plate. 100 μL of a test antibody was added, with the highest final concentration of 100 nM. The antibody was 5-fold diluted to 8 concentrations. The plate was incubated at 4° C. for 1 h. […] The plate was incubated at 4° C. for 30 min. The plate was washed once with wash buffer, and fluorescence intensity was measured using a flow cytometer. The binding EC₅₀ values of the anti-CD40 antibodies for CD40 were calculated. The anti-CD40 antagonistic antibody CFZ533 (i.e., iscalimab, Nova) was used as a positive control, and the heavy and light chain variable region sequences were derived from sequence 5 and sequence 2 of U.S. Pat. No. 8,277,810B, respectively.

[3] = target: T1, human CD40 on the cell surface; experiment: flow cytometry on Raji cells, Alexa Fluor 488 anti-human IgG (H+L) detection
Protocol: Raji cells were plated at 1.5E5/well, and various concentrations of CD40 antagonistic antibodies were added. The plate was incubated at 4° C. for 1 h. After two washes with FACS buffer (PBS+2% FBS), a secondary antibody (Alexa Flour488 conjugated anti-human IgG (H+L) antibody) was added, and the plate was incubated at 4° C. for 0.5 h.
After two washes with FACS buffer, the fluorescence intensity on the cell surface was measured by flow cytometry (BD FACS Celesta).

T1 sequence (P25942 21-277): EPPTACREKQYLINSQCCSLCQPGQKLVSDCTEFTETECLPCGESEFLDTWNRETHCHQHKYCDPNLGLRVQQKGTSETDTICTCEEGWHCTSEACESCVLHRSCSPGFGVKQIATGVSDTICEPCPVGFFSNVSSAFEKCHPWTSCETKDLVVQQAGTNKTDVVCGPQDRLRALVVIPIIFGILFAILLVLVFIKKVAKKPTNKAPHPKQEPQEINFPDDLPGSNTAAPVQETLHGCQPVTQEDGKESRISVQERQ

B1: 9F10 human-rabbit chimeric anti-CD40 antibody (antibody, human IgG1, V domains shown)
VH: QSVKESEGGLFKPTDTLTLTCTVSGFSLSSYDMSWVRQAPGNGLEWIGAIGGAGGTYYASWAKSRSTITRNTNLNTVTLKMTSLTAADTATYFCTRGWTRLDLWGQGTLVTVSS
VL: DIVLTQTESPVSGPVGGTVTINCQASEDISSNLAWYQQKPGQPPKLLIYAASNLASGVPSRFKGSGSGTEFTLTISDLECADAATYYCQGAYWSSTSYFGNGFGGGTQVVVK
With B1 the “reporter gene cell activity IC50 (HEK-Blue CD40L cells, SEAP)” value (shortened to “reporter gene cell activity IC50”) [1] was 0.217 nM.

B2: 9E6 human-rabbit chimeric anti-CD40 antibody (antibody, human IgG1, V domains shown)
VH: B1 VH with K4R, F11V, T82S, T95A
VL: B1 VL with E8P, P14A, N22K, Y49F, A50P, P59S, A91G, S94T, Y98N, Q108E
B2 was tested, and the “reporter gene cell activity IC50” value [1] was 0.221 nM, the EC50 [2] was 0.608 nM and the EC50 [3] was 0.895 nM.

B3: 5A9 human-rabbit chimeric anti-CD40 antibody (antibody, human IgG1, V domains shown)
VH: B1 VH with V23A, G25R, V77L, T95A
VL: B1 VL with E8A, P14A, A25S, A34S, A91G, S95G, T96I, Y98N, Q108E
In the case of B3, the “reporter gene cell activity IC50” value [1] is reported as 0.317 nM and the EC50 [2] is reported as 0.671 nM.

B4: 3F6 human-rabbit chimeric anti-CD40 antibody (antibody, human IgG1, V domains shown)
VH: QSVKESEGGLFKPTDTLTLTCTVSGFSLSSYAISWVRQAPGNGLEWIGAIDRYGTTYYATWAKSRSTITRNTNENTVTLKMTSLTAADTATYFCARGPWYYGGDVAWTGSFDPWGPGTLVTVSS
VL: AQVLTQTASPVSAAVGGTVTISCQSSQSVANNDFLSWYQQKPGQPPKLLIYGASTLASGVPSRFRGNGSGTQFTLTITGMQCDDAATYFCTGGYAGPIYIFGGGTEVVVK
With B4 the “reporter gene cell activity IC50” value [1] was 0.378 nM and the EC50 [2] was 1.51 nM.

B5: humanized anti-CD40 antibody 9E6-L2H1 (antibody, human IgG1, V domains shown)
VH: EVQLQESGPGLVKPSDTLSLTCTVSGFSLSSYDMSWIRQPPGKGLEWIGAIGGAGGTYYASWAKSRVTISVDTSLNQVSLKLSSVTAADTAVYYCARGWTRLDLWGQGTLVTVSS
VL: DIQLTQSPSFLSASVGDRVTITCQASEDISSNLAWYQQKPGKPPKLLIFPASNLASGVPSRFSGSGSGTEFTLTISSLQPEDFATYYCQGGYWTSTSNFGSGFGGGTKVEIK
For B5, the EC50 [3] was 1.99 nM.

B6: humanized anti-CD40 antibody 9E6-L3H1 (antibody, human IgG1, V domains shown)
VH: B5 VH
VL: B5 VL with S101T
For B6, the EC50 [3] was 1.06 nM.

B7: humanized anti-CD40 antibody 9E6-L1H1 (antibody, human IgG1, V domains shown)
VH: B5 VH
VL: B5 VL with S101N, G102V
For B7, the EC50 [3] was 1.08 nM.

B8: humanized anti-CD40 antibody 9E6-L2H2 (antibody, human IgG1, V domains shown)
VH: B5 VH with E1Q, L4V
VL: B5 VL
Work on B8 yielded an EC50 [3] of 1.66 nM.

B9: humanized anti-CD40 antibody 9E6-L1H2 (antibody, human IgG1, V domains shown)
VH: B5 VH with E1Q, L4V
VL: B5 VL with S101N, G102V
In the case of B9, the EC50 [3] is reported as 1.05 nM.

B10: humanized anti-CD40 antibody 9E6-L3H2 (antibody, human IgG1, V domains shown)
VH: B5 VH with E1Q, L4V
VL: B5 VL with S101T
B10 gave an EC50 [3] of 1.15 nM.

B11: humanized anti-CD40 antibody 9E6-L4H1 (antibody, human IgG1, V domains shown)
VH: B5 VH
VL: B5 VL with S101Q
B11 was tested, and the EC50 [3] was 0.928 nM.

B12: 2F12 human-rabbit chimeric anti-CD40 antibody (antibody, human IgG1, V domains shown)
VH: QSVKESEGGLFKPKDTLTLTCTVSGFSLSSYGVSWVRQAPGNGLEWIGGIGSDGSAYYASWAKSRATITRDTNLKTVTLEMTSLTAADTATYFCARGGITVYAMWGPGTLVTVSS
VL: AFELTQTPASVEAAMGGTVTIKCQASQSISNGLAWYQQKPGQPPKLLIVGASNLASGVSSRFKGSGSGTEFTLSISDLECADGATYYCQSYFSSSSTVFGGGTEVVVK
notes: Rabbit variable regions joined to human IgG1 constant region with N297A (Eu) and human kappa constant region
In the case of B12, the “reporter gene cell activity IC50” value [1] is reported as 0.172 nM, the EC50 [2] is reported as 0.412 nM and the EC50 [3] is reported as 0.479 nM.

B13: 5B8 human-rabbit chimeric anti-CD40 antibody (antibody, human IgG1, V domains shown)
VH: B12 VH with K14T, S29N, G49A, D53S, K63R, A66S, K75N, E80K, M104I
VL: AFELTQTPSPVSAAVGGTVTINCQASEDITNGIAWYQQKPGQPPKLLIAGASNLASGVSSRFKGSGSGTEFTLTISDLECDDAATYYCQSYYSSSYTIFGGGTEVVVK
With B13 the “reporter gene cell activity IC50” value [1] was 0.203 nM and the EC50 [2] was 0.435 nM.

B14: 4F6 human-rabbit chimeric anti-CD40 antibody (antibody, human IgG1, V domains shown)
VH: B12 VH with K14A, G25R, S34T, G49A, D53T, A66S, K75N, E80K, V101A, M104I
VL: AFELTQTPSSVEAAVGGTVTIKCQASQSISNGLAWYQQKPGQPPKLLIAGASNLASGVSSRFKGSGSGIEFILTISDLECADAATYYCQSYYNSFTTVFGGGTEVVVK
With B14 the “reporter gene cell activity IC50” value [1] was 0.182 nM and the EC50 [2] was 0.258 nM.

B15: 4D4 human-rabbit chimeric anti-CD40 antibody (antibody, human IgG1, V domains shown)
VH: B12 VH with K14T, M104I
VL: B12 VL with A9S, S10P, E12S, M15V, L46V
In the case of B15, the “reporter gene cell activity IC50” value [1] is reported as 0.197 nM.

B16: 8G10 human-rabbit chimeric anti-CD40 antibody (antibody, human IgG1, V domains shown)
VH: QSVKESEGGLFKPTATLTLTCTVSGFSLSSYGVSWVRQAPGSGLEWIGGIASTGTTYYANWAKSRSTITRDTNLKTVTLKMTSLTAADTATYFCARGGITAYAIWGPGTLVTVSS
VL: B14 VL with S30T, I69T, I72T, N93D, F95S, T96S
In the case of B16, the “reporter gene cell activity IC50” value [1] is reported as 0.156 nM.

B17: 8C12 human-rabbit chimeric anti-CD40 antibody (antibody, human IgG1, V domains shown)
VH: B12 VH with K14T, A86V, M104I
VL: B12 VL with A9S, S10P, E12S, M15V, L46V
B17 was tested, and the “reporter gene cell activity IC50” value [1] was 0.173 nM.

B18: 10A4 human-rabbit chimeric anti-CD40 antibody (antibody, human IgG1, V domains shown)
VH: QSLEESGGRLVTPGGSLTLTCTVSGIDLSRNAISWVRQSPGNGLEWIGGIGSSGSAYYASWAKSRSTITRDTNLNTVTLKMTSLTAADTATYFCARDGYAGSSWGIYYGMDPWGPGTLVTVSS
VL: AIEMTQSPPSLSASVGETVRIRCLASEDIYRGISWYQQKPGKPPTLLIYGASTLQSGVPPRFSGSGSGTDYTLTIGGVQAEDAATYYCLGGHSYSSAGLTFGAGTKVEIK
B18 was tested, and the “reporter gene cell activity IC50” value [1] was 0.217 nM and the EC50 [2] was 0.467 nM.

B19: humanized anti-CD40 antibody 2F12-L2H1 (antibody, human IgG1, V domains shown)
VH: EVTLKESGPVLVKPTETLTLTCTVSGFSLSSYGVSWIRQPPGKALEWLAGIGSDGSAYYASWAKSRLTISRDTNLKQVVLTMTNMDPVDTATYYCARGGITVYAMWGQGTLVTVSS
VL: AFQLTQSPSSLSASVGDRVTITCQASQSISQGLAWYQQKPGKPPKLLIVGASNLASGVPSRFSGSGSGTDFTLTISSLQPEDFATYYCQSYFSSSSTVFGGGTKVEIK
For B19, the EC50 [3] was 0.516 nM.

B20: humanized anti-CD40 antibody 2F12-L3H1 (antibody, human IgG1, V domains shown)
VH: B19 VH
VL: B19 VL with Q31S
Binder B20 has an EC50 [3] of 0.456 nM.

B21: humanized anti-CD40 antibody 2F12-L3H2 (antibody, human IgG1, V domains shown)
VH: B19 VH with L4V, A49G
VL: B19 VL with Q31S
For B21, the EC50 [3] was 0.762 nM.

B22: humanized anti-CD40 antibody 2F12-L4H1 (antibody, human IgG1, V domains shown)
VH: B19 VH
VL: B19 VL with Q31T
B22 was tested, and the EC50 [3] was 0.508 nM.

B23: humanized anti-CD40 antibody 2F12-L1H2 (antibody, human IgG1, V domains shown)
VH: B19 VH with L4V, A49G
VL: B19 VL with Q31N, G32V
B23 gave an EC50 [3] of 0.469 nM.

B24: humanized anti-CD40 antibody 2F12-L1H1 (antibody, human IgG1, V domains shown)
VH: B19 VH
VL: B19 VL with Q31N, G32V
B24 gave an EC50 [3] of 0.549 nM.

B25: humanized anti-CD40 antibody 2F12-L2H2 (antibody, human IgG1, V domains shown)
VH: B19 VH with L4V, A49G
VL: B19 VL
With B25 the EC50 [3] was 0.516 nM.
